The source of these data is publication PMC7949032, “The KH domain facilitates the substrate specificity and unwinding processivity of DDX43 helicase”.

Broadly, the Kd is the free concentration of one partner at which half of the binding sites on the other are occupied at equilibrium, for simple one-to-one binding. What is called stoichiometry N is the number of molecules, sites or subunits per partner or assembly.

Residue numbers refer to the chain shown, from its start.

The target of data set [1] is T1, DDX43 KH-126 (UniProt Q9NXZ2).
T1 sequence: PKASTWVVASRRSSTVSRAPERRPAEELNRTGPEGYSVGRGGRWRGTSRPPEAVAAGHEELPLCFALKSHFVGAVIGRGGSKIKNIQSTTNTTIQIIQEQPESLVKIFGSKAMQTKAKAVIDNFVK
In words: filter binding. The following applies: EMSA: 40 mM Tris pH 8.0, 0.5 mM MgCl2, 15 mM NaCl, 0.01% NP-40, 0.1 mM DTT, 1 mg/ml BSA, no ATP, ice 30 min (Fig 2A legend: RT); filter binding: 25 mM Tris pH …. (In EMSA bound probe runs differently from free probe, usually more slowly.)

Data set [2] addresses DDX43 KH-domain protein KH-126 (human) (UniProt Q9NXZ2). Description: SEC; Sephacryl S-100 high-resolution column calibrated with molecular mass standards; buffer A (25 mM Tris pH 8.0, 0.15 M NaCl, 100 uM Tween 20, 10% glycerol), 0.5 ml/min.
Data set [3] concerns the target T2, DDX43 KH-89 (UniProt Q9NXZ2 54-142).
T2 sequence: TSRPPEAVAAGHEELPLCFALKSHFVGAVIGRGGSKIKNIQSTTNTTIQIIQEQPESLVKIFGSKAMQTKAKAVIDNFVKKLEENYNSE
Description: EMSA; EMSA: 40 mM Tris pH 8.0, 0.5 mM MgCl2, 15 mM NaCl, 0.01% NP-40, 0.1 mM DTT, 1 mg/ml BSA, no ATP, ice 30 min (Fig 2A legend: RT); filter binding: 25 mM Tris pH 7.5, 25 mM KOAc, 1 mM Mg(OAc)2, 1 mM DTT, 0.1 mg/ml BSA, 37 C; NMR: 25 mM Hepes pH 7.4, 250 mM NaCl, 5% D2O, temperature not stated. The following applies: protein: recombinant; His removed by thrombin for NMR; 15N; label: 5'-32P.

Data set [4] concerns the target T2, DDX43 KH-89. Description: NMR HSQC titration; negligible shift changes; EMSA: 40 mM Tris pH 8.0, 0.5 mM MgCl2, 15 mM NaCl, 0.01% NP-40, 0.1 mM DTT, 1 mg/ml BSA, no ATP, ice 30 min (Fig 2A legend: RT); filter binding: 25 mM Tris pH 7.5, 25 mM KOAc, 1 mM Mg(OAc)2, 1 mM DTT, 0.1 mg/ml BSA, 37 C; NMR: 25 mM Hepes pH 7.4, 250 mM NaCl, 5% D2O, temperature not stated. Conditions: protein: recombinant; His removed by thrombin for NMR; 15N.

The target in data set [5] is T2, DDX43 KH-89. In words: NMR HSQC titration; EMSA: 40 mM Tris pH 8.0, 0.5 mM MgCl2, 15 mM NaCl, 0.01% NP-40, 0.1 mM DTT, 1 mg/ml BSA, no ATP, ice 30 min (Fig 2A legend: RT); filter binding: 25 mM Tris pH 7.5, 25 mM KOAc, 1 mM Mg(OAc)2, 1 mM DTT, 0.1 mg/ml BSA, 37 C; NMR: 25 mM Hepes pH 7.4, 250 mM NaCl, 5% D2O, temperature not stated. Conditions: protein: recombinant; His removed by thrombin for NMR; 15N.

Data set [6] addresses T3, DDX43 full-length WT (UniProt Q9NXZ2 1-648). Description: EMSA; no ATP; preferred RNA; EMSA: 40 mM Tris pH 8.0, 0.5 mM MgCl2, 15 mM NaCl, 0.01% NP-40, 0.1 mM DTT, 1 mg/ml BSA, no ATP, ice 30 min (Fig 2A legend: RT); filter binding: 25 mM Tris pH 7.5, 25 mM KOAc, 1 mM Mg(OAc)2, 1 mM DTT, 0.1 mg/ml BSA, 37 C; NMR: 25 mM Hepes pH 7.4, 250 mM NaCl, 5% D2O, temperature not stated. The following applies: protein: recombinant; (pET28a); label: 5'-32P; 13 bp, 5' overhang 15 nt on strand 1.

Data set [7] addresses T3, DDX43 full-length WT. Description: EMSA; no ATP; preferred DNA; EMSA: 40 mM Tris pH 8.0, 0.5 mM MgCl2, 15 mM NaCl, 0.01% NP-40, 0.1 mM DTT, 1 mg/ml BSA, no ATP, ice 30 min (Fig 2A legend: RT); filter binding: 25 mM Tris pH 7.5, 25 mM KOAc, 1 mM Mg(OAc)2, 1 mM DTT, 0.1 mg/ml BSA, 37 C; NMR: 25 mM Hepes pH 7.4, 250 mM NaCl, 5% D2O, temperature not stated. Conditions: protein: recombinant; (pET28a); label: 5'-32P; 20 bp, 3' overhang 25 nt on strand 1.

Data set [8] has as its target T4, DDX43 KH-89 A81G (UniProt Q9NXZ2 54-142, A81G).
T4 sequence: T2 sequence with A28G
Description: NMR HSQC titration; fewer residues shifted, larger shifts than WT; EMSA: 40 mM Tris pH 8.0, 0.5 mM MgCl2, 15 mM NaCl, 0.01% NP-40, 0.1 mM DTT, 1 mg/ml BSA, no ATP, ice 30 min (Fig 2A legend: RT); filter binding: 25 mM Tris pH 7.5, 25 mM KOAc, 1 mM Mg(OAc)2, 1 mM DTT, 0.1 mg/ml BSA, 37 C; NMR: 25 mM Hepes pH 7.4, 250 mM NaCl, 5% D2O, temperature not stated. Conditions: protein: recombinant; tags: His cleaved by thrombin.

T3 sequence (Q9NXZ2 whole entry): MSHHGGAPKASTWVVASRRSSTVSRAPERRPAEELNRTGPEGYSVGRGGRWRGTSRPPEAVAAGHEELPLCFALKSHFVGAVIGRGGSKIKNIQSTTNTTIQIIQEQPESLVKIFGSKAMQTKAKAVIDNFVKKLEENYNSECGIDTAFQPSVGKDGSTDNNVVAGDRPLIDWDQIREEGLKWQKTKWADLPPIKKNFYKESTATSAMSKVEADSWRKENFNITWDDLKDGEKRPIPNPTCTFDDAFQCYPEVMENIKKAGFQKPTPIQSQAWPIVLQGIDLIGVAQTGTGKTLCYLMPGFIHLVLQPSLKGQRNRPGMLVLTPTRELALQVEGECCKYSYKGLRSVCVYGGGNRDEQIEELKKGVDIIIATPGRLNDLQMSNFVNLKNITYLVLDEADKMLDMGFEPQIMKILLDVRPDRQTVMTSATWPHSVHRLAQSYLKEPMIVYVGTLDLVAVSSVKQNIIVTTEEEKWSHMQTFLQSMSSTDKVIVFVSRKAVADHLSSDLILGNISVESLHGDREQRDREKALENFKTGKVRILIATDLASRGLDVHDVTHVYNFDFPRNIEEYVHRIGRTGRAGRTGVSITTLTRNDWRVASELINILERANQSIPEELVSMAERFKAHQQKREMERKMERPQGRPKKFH

“TTTTTTTTTTTTTTTGGTGATGGTGTATTGAGTGGGATGCATGCA / TGCATGCATCCCACTCAATACACCATCACCTTTTTTTTTTTTTTT [fork dsDNA 30/15]” registered a Kd in data set [1] of 1.29 µM.

In turn, “GAGCTACCAGCTACCCCGTATGTCAGAGAG [ssDNA 30-mer]” displayed a Kd in data set [1] of 1.41 µM. On to UUUUUUUUUUUUUUUUUUUUUUUUUUUUUU [rU30], for which the Kd in data set [1] was 1.48 µM. The same measure, in the same setting: under TTTTTTTTTTTTTTTTTTTTTTTTTTTTTT [dT30] stands 2.45 µM. “DDX43 KH-domain protein KH-126 (from UniProt Q9NXZ2 67-128) (domain or fragment)” showed a stoichiometry N in data set [2] of 2. With “UUUUUUUUUUUUUUUGGUGAUGGUGUAUUGAGUGGGAUGCAUGCA / UGCAUGCAUCCCACUCAAUACACCAUCACCUUUUUUUUUUUUUUU [forked dsRNA 30/15]”, the Kd in data set [1] is 2.5 µM. Consider “GAGCUACCAGCUACCCCGUAUGUCAGAGAG [ssRNA 30-mer]”, for which the Kd in data set [1] stood at 3.01 µM.

B1: ssRNA 30-mer (ssRNA)
RNA: GAGCUACCAGCUACCCCGUAUGUCAGAGAG
Regarding B1, the binding result in data set [3] is given as “binds”.

B2: dA5 (ssDNA)
DNA: AAAAA
With B2, in data set [4], the binding result is reported as “no binding”.

B3: GTTGT (ssDNA)
DNA: GTTGT
Regarding B3, in data set [5], the Kd worked out at 44 µM.

B4: 13-bp dsRNA 5' UUGU-repeat tail (dsRNA)
RNA 1: UGUUGUUGUUGUUGUACCGUAAAGACGC
RNA 2: GCGUCUUUACGGU
Regarding B4, the binding result in data set [6] is recorded as “binds”.

B5: CGCGC (ssDNA)
DNA: CGCGC
For the molecule B5, the Kd in data set [5] amounted to 266 µM.

B6: dG5 (ssDNA)
DNA: GGGGG
Take B6: the binding result in data set [4] was “no binding”.

B7: CTCTC (ssDNA)
DNA: CTCTC
B7: in data set [5], the binding result is “binds”.

B8: TGTGT (ssDNA)
DNA: TGTGT
In the case of B8, the dissociation constant (Kd) in data set [5] was determined as 78 µM.

B9: 20-bp dsDNA 3' TTGT-repeat tail (dsDNA)
DNA 1: CCACTCAATACACCATCACCTTGTTGTTGTTGTTGTTGTTGTTGT
DNA 2: GGTGATGGTGTATTGAGTGG
On to B9, for which the binding result in data set [7] is given as “binds”.

B10: ssDNA 30-mer (ssDNA)
DNA: GAGCTACCAGCTACCCCGTATGTCAGAGAG
On to B10, for which the binding result in data set [3] is “binds”.

B11: dT10 (ssDNA)
DNA: TTTTTTTTTT
For B11, in data set [5], the equilibrium dissociation constant (Kd) is 174 ± 90 µM.

B12: rU5 (ssRNA)
RNA: UUUUU
Consider B12, for which the dissociation constant Kd in data set [5] was found to be 1800 ± 200 µM.

B13: dC5 (ssDNA)
DNA: CCCCC
With B13, the Kd in data set [5] was 2100 ± 400 µM.

B14: dT5 (ssDNA)
DNA: TTTTT
In the case of B14, in data set [5], the Kd is 1500 ± 290 µM. Moreover, in data set [8], the binding result is recorded as “binds”.
